Results as given in the supplement of paper PMC7877785.
± gives the uncertainty stated by the source.

Assay: self-splicing fitness, log relative to wild type (ln ratio); higher = more splicing; Tetrahymena group I intron in knt gene, E. coli kanamycin selection, DiMSum; sequences stand for … in CUCUCU…GGAGGGAAAAGUUAUCAGGCAUGCACCUGGUAGCUAGUCUUUAAACCAAUAGAUUGCAUCGGUUUAAAAGGCAAGACCGUCAAAUUGCGGGAAAGGGGUCAACAGCCGUUCAGUACCAAGUCUCAGGGGAAACUUUGAGAUGGCCUUGCAAAGGGUAUGGUAAUAAGCUGACGGACAUGGUCCUAACCACGCAGCCAAGUCCUAAGUCAACAGAUCUUCUGUUGAUAUGGAUGCAGUUCACAGACUAAAUGUCGGUCGGGGAAGAUGUAUUCUUCUCAUAAGAUAUAGUCGGACCUCUCCUUAAUGGGAGCUAGCGGAUGAAGUGAUGCAACACUGGAGCCGCUGGGAACUAAUUUGUAUGCGAAAGUAUAUUGAUUAGUUUUGGAGUACUCGUGGUCG
Method in brief: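 DiMSum derived fitness as the error-weighted combination of fold changes across replicates, kanamycin versus no kanamycin, normalised to wild type. E. coli BL21(DE3) held the library, which randomised all eight P1ex-region intron nucleotides within the knt kanamycin-resistance gene on pET-22b(+). Six replicate transformations grew overnight at 37°C or 30°C on LB agar with or without 25 μg/mL kanamycin, also containing 100 μg/mL carbenicillin, 50 μM IPTG and 0.2% rhamnose, and pooled colonies were amplicon-sequenced on an Illumina HiSeq 2500.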

Sequence	self-splicing fitness (ln) (37 °C)	self-splicing fitness (ln) (30 °C)
UCGAAGCAAUAUUACGCUUG	-2.64 ± 0.26	–
UCGAAGCAAUAUUACGGACC	-2.02 ± 0.34	-3.46 ± 0.33
UCGAAGCAAUAUUACGGAUU	-2.56 ± 0.25	-3.96 ± 0.32
UCGAAGCAAUAUUACGGCAC	-1.95 ± 0.32	-1.74 ± 0.23
UCGAAGCAAUAUUACGGCAG	-0.963 ± 0.11	-2.11 ± 0.097
UCGAAGCAAUAUUACGGGAC	-3.17 ± 0.33	-3.19 ± 0.47
UCGAAGCAAUAUUACGGUAC	–	-4.43 ± 0.39
UCGAAGCAAUAUUACGGUUG	-0.93 ± 0.14	-1.65 ± 0.097
UCGAAGCAAUAUUACGUCUC	-2.28 ± 0.32	-2.49 ± 0.15
UCGAAGCAAUAUUACGUCUU	-2.29 ± 0.15	-3.87 ± 0.14
UCGAAGCAAUAUUACGUGCC	–	-2.86 ± 0.42
UCGAAGCAAUAUUACGUGGC	-2.78 ± 0.23	–
UCGCAGCAAUAUUACGAACG	-1.05 ± 0.3	-2.63 ± 0.39
UCGCAGCAAUAUUACGACGU	-0.706 ± 0.074	-1.46 ± 0.076
UCGCAGCAAUAUUACGAGGA	-0.7 ± 0.12	-2.88 ± 0.19
UCGCAGCAAUAUUACGAGUA	-0.752 ± 0.12	-2.36 ± 0.14
UCGCAGCAAUAUUACGAGUU	-1.95 ± 0.23	-4.47 ± 0.28
UCGCAGCAAUAUUACGCCGC	-1.21 ± 0.32	–
UCGCAGCAAUAUUACGCCUG	-1.28 ± 0.2	-3.14 ± 0.23
UCGCAGCAAUAUUACGCGUC	-1.8 ± 0.14	-3.42 ± 0.16
UCGCAGCAAUAUUACGCUGC	-0.264 ± 0.26	-2.62 ± 0.49
UCGCAGCAAUAUUACGCUGU	-3.02 ± 0.19	-3.13 ± 0.14
UCGCAGCAAUAUUACGGAAA	-1.57 ± 0.17	-2.71 ± 0.21
UCGCAGCAAUAUUACGGAAC	-2.53 ± 0.41	-1.51 ± 0.32
UCGCAGCAAUAUUACGGACC	-2.69 ± 0.33	-3.5 ± 0.41
UCGCAGCAAUAUUACGGAGC	-1.89 ± 0.26	-3.54 ± 0.35
UCGCAGCAAUAUUACGGAGU	-1.92 ± 0.23	-2.32 ± 0.21

Sequence	self-splicing fitness (ln) (37 °C)	self-splicing fitness (ln) (30 °C)
UCGCAGCAAUAUUACGGCAC	-2.67 ± 0.29	-1.94 ± 0.34
UCGCAGCAAUAUUACGGCCA	0.246 ± 0.11	-0.107 ± 0.091
UCGCAGCAAUAUUACGGGGC	-2.63 ± 0.27	-2.52 ± 0.23
UCGCAGCAAUAUUACGUACU	-1.86 ± 0.32	–
UCGCAGCAAUAUUACGUCCG	-0.0675 ± 0.1	-0.808 ± 0.078
UCGGAGCAAUAUUACGAAAU	–	-3.14 ± 0.49
UCGGAGCAAUAUUACGACUA	-1.83 ± 0.38	-1.22 ± 0.37
UCGGAGCAAUAUUACGAGCU	–	-2.89 ± 0.27
UCGGAGCAAUAUUACGAUAC	-0.757 ± 0.33	-3.5 ± 0.35
UCGGAGCAAUAUUACGCUAA	–	-2.18 ± 0.35
UCGGAGCAAUAUUACGGAAA	-2.64 ± 0.36	–
UCGGAGCAAUAUUACGGACA	-1.38 ± 0.37	–
UCGGAGCAAUAUUACGGUCU	–	-0.916 ± 0.37
UCGGAGCAAUAUUACGGUUA	-2.3 ± 0.28	-2.38 ± 0.47
UCGGAGCAAUAUUACGUAGG	-0.619 ± 0.15	-1.78 ± 0.13
UCGGAGCAAUAUUACGUCGG	-2.04 ± 0.28	-1.7 ± 0.24
UCGGAGCAAUAUUACGUGAU	-3.24 ± 0.47	–
UCGGAGCAAUAUUACGUGCC	-2.53 ± 0.45	-3.26 ± 0.34
UCGGAGCAAUAUUACGUGGG	-3.22 ± 0.28	-3.49 ± 0.32
UCGGAGCAAUAUUACGUGUA	-1.29 ± 0.2	–
UCGGAGCAAUAUUACGUUAG	-2.12 ± 0.22	–
UCGUAGCAAUAUUACGAAAG	-2.16 ± 0.23	-3.1 ± 0.17
UCGUAGCAAUAUUACGACAC	-2.7 ± 0.4	-3.54 ± 0.34
UCGUAGCAAUAUUACGACAG	-1.5 ± 0.29	–
UCGUAGCAAUAUUACGACGA	-0.365 ± 0.11	-3.15 ± 0.3
UCGUAGCAAUAUUACGACUC	-1.34 ± 0.31	–
UCGUAGCAAUAUUACGAGAG	-1.89 ± 0.25	-4.38 ± 0.46
